Measured values reported in paper PMC3518043 (Biochemistry, 2012).
Ends that are not written are not given here.

Tests used:
[1] = target: CHD5 tandem PHD1-2 as used in the ALPHA (UniProt Q8TDI0 338-468); test: AlphaScreen or HTRF
[2] = target: CHD5 tandem PHD1-2 (338-468), GST tag cleaved (UniProt Q8TDI0 338-468); test: SPR
[3] = target: CHD5 PHD2 finger (413-468), GST tag cleaved (UniProt Q8TDI0 413-468); test: SPR
[4] = target: CHD5 PHD1 finger (338-393), GST tag cleaved (UniProt Q8TDI0 338-393); test: SPR
CHD5 PHD1 finger (338-393), GST tag cleaved, sequence (Q8TDI0 338-393): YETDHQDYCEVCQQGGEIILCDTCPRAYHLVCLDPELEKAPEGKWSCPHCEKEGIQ

CHD5 PHD2 finger (413-468), GST tag cleaved, sequence (Q8TDI0 413-468): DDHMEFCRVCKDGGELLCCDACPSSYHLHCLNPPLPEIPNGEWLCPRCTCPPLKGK
CHD5 tandem PHD1-2 (338-468), GST tag cleaved, sequence (Q8TDI0 338-468): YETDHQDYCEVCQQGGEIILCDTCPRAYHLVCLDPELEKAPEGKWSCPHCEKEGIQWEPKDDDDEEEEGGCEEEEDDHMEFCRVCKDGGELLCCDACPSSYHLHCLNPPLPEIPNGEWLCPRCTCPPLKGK
CHD5 tandem PHD1-2 as used in the ALPHA, sequence (Q8TDI0 338-468): as above

Binder	binding result [1]	Kd [2]	koff [2]	kon [2]	Kd [3]	koff [3]	kon [3]	Kd [4]	koff [4]	kon [4]
ARTKQTARKST (peptide, UniProt P68431 2-12, looked up) [Histone H3 peptide (1-11) with C-terminal 6x-histidine]	binds									
ARTKQTARKST-biotin (peptide, UniProt P68431 2-12, looked up) [Histone H3 peptide (1-11) with C-terminal biotin]		9.18 µM	0.00348 s⁻¹	379 ± 7 M⁻¹ s⁻¹	34.6 µM	0.0136 ± 0.0003 s⁻¹	393 ± 13 M⁻¹ s⁻¹	98.8 µM	0.0103 ± 0.0001 s⁻¹	104 ± 7 M⁻¹ s⁻¹
